# According to the nanobody polyreactivity screen of Harvey et al. (2022):
# Experiment: yeast display, Sf9 membrane polyspecificity reagent, FACS + sequencing; frameworks hold sequencing errors
# In short: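 Nanobodies came from a synthetic yeast display library in Saccharomyces cerevisiae BJ5465, induced with galactose for 36–48 hours and stained for 1 hour at 4 °C with 10% biotinylated, detergent-solubilized Sf9 membrane reagent. Cells were enriched on streptavidin microbeads and then FACS-sorted, with low and high (top ~1%) gates set on anti-HA fluorescence for expression and streptavidin fluorescence for reagent binding. Each polyreactivity label reflects the gate a clone came from. Genes were amplified by colony PCR, sequenced by MiSeq 2 × 250 and filtered by CDR length.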
row,Sequence,polyreactivity (PSR sort gate)
1,QVQLVESGGGLVQAGGSLRLSCAASGSIFDYYGMGWYRQAPGKEGELVATISQGGDSSYYADSVKGRFTISRDNAKNTVYLQMNSLKPEDTAVYYCAALVPIYRWYKLYYWGQGTQVTLSS,low polyreactivity
2,QVQLVESGGGLVQAGGSLRLSCAASGSIFDYYGMGWYRQAPGKERELVARITKRGGSTYYADSVMGRFTISRDNAKNTVYFQMNSLKPEDTAVYYCAAVVAYLFSGRGYRYNYWGQGTQVTLSS,high polyreactivity
3,QVQLVESGGGLVQAGGSLRLSCAASGSIFDYYTMGWYRQAPGKERELVAVIDNSGGSTYYADSVKGRFTISRDNAKNTVYLQMNSLKPEDTAVYYCARRFYNYVSYSNGGATLYDYWGQGTQVTVSS,high polyreactivity
4,QVQLVESGGGLVQAGGSLRLSCAASGSIFEAYAMGWYRQAPGKERELVAAITTAGGSTYYADSVKGRFTISRDNAKNTVYLQMNSLKPEETAVYYCARDYGKYKGYYWGQGTQVTVSS,low polyreactivity
5,QVQLVESGGGLVQAGGSLRLSCAASGSIFEAYAMGWYRQAPGKEREVVAVISWRGGRTYYADSVKGRFTISRDNAKNTVYLQMNSLNPEDTAVYYCNKAYWWHQVGLPRNYEYWGQGTQVTVSS,low polyreactivity
6,QVQLVESGGGLVQAGGSLRLSCAASGSIFEDYAMGWYRQAPGKERELVAAIDWGDGDTYYADSVKGRFTISRDNAKNTVYLQMNSLKPEDTAVYYCAADLVGYSGYYFDEEYYWGQGTQVTVSS,high polyreactivity
7,QVQLVESGGGLVQAGGSLRLSCAASGSIFEDYTMGWYRQAPGKERELVAAIDWSDASTFYADSVKGRFTISRDNAKNTVYLQMSLKPEDTAVYYCNVAIIFYDDDYWGQGTLVTVSS,high polyreactivity
8,QVQLVESGGGLVQAGGSLRLSCAASGSIFEGNAMGWDRQAPGKERELVASISGDGSTNYADSVKGRFTISRDNAKITVYLQMNCLKPEDTAVYYCAASFRWYGTVRYPYEMYYWGQGTQVTVSS,low polyreactivity
9,QVQLVESGGGLVQAGGSLRLSCAASGSIFEGNAMGWYREAPGKERELVASISGDGSTNYADSVKGRFTISRDNAKNTVYLQMNSLKPEDTAVYYCNADTISEPGFHMDYWGQGTQVTVSS,low polyreactivity
10,QVQLVESGGGLVQAGGSLRLSCAASGSIFEGNGMGWNRQEPGNVRELVAAITFRSGSTYYADSVKGRFTISRDNAKNSVYLQMNSLKPEDTAVYYCAADEYYQVSAYDYWGQGTQVTVSS,low polyreactivity
11,QVQLVESGGGLVQAGGSLRLSCAASGSIFEGNGMGWYRQAPGQERELVAAITFRSGSTYYADSVKGRFTISRDNAKNTVYLQMNSLKPEDTAVYYCAADEYYQGYAYDYWGQGTPVTVSS,low polyreactivity
12,QVQLVESGGGLVQAGGSLRLSCAASGSIFEGYVMGWYRQAPGKERELVATISFSGGSTYYADSVKGRFTISRDNAKNTVYLQMNSLKPEDTAVYYSAAAGVYYGVRGTTYAYDYWGQGTQVTVSS,low polyreactivity
13,QVQLVESGGGLVQAGGSLRLSCAASGSIFEHYAMGWYRQAPGKERELVATISSASRTNYADSVKGRFTISRDNAKNTVYLQMNSLKPEDTAVYYCAARFYYVWYGPYYYWGQGTQVTVSS,high polyreactivity
14,QVQLVESGGGLVQAGGSLRLSCAASGSIFEQYAMGGSRPAPGKERELVAAISKRGTSTYYADSVKGRFTISRDTPKNTVYLNMNSLKPEDTAVYYCAATNRWYYRAAADVYAFGYWGQGTQVTVSS,high polyreactivity
15,QVQLVESGGGLVQAGGSLRLSCAASGSIFERNAMGWYRQAPGKERELVAAISDDDGSTYYADSVKGRFTISRDNAKNTVYLQMNSLKPEDTAVYYCNAYSHFGSFYPFDYWGQGTQVTVSS,low polyreactivity
16,QVQLVESGGGLVQAGGSLRLSCAASGSIFERYAMGWYRQAPGKERELVAAISWSGGRTYYADSVKGRFTISRDYAKNTFFLQMNSLNPEDTAVYYCARVVQPGSPIYDYWGQGTQVTVSS,high polyreactivity
17,QVQLVESGGGLVQAGGSLRLSCAASGSIFERYDMGWYRQAPGKERELVAAITSAGITYYADSVKGRFTISRDNAKNTVYLQMNSLKPEDTAVYYCAASYYYGYDYWGQGTQVTVSS,low polyreactivity
18,QVQLVESGGGLVQAGGSLRLSCAASGSIFERYTMGWYRQAPGKERELVAAISRSGGRTYYADSVKGRFTISRDNAKNTVYLQMNSLKPEDTAVYYCARTRVASKGYDYWGQGTQVTVSS,high polyreactivity
19,QVQLVESGGGLVQAGGSLRLSCAASGSIFESYAMGWYRQAPGKERELVAAIDYSGGSTYYADSVKGRFTISRDNAKNSVYLQMNSLKREDTAVYYCAAGYRTYYGYRYGYWGQGTQVTVSS,high polyreactivity
20,QVQLVESGGGLVQAGGSLRLSCAASGSIFESYAMGWYRQAPGKERELVAAITKRGGSTYYADSVKGRFTISRDNAKNTVYLQMNSLKPEDTAVYYCNARWPGIGPIYDYWGQGTQVTVSS,low polyreactivity
21,QVQLVESGGGLVQAGGSLRLSCAASGSIFESYVMGWYRQAPGKERELVAAISSGGSTYYADSVKGRFTISRDNAKNTVYLQMNSLKPEDTAVYYCAKRSHTYSVPGVYNEGDYWGQGTQVTVSS,low polyreactivity
22,QVQLVESGGGLVQAGGSLRLSCAASGSIFEVNAMGLYRQAPGKERELVAAISCSGGSTYYADSVKGRFTISRDNAKNTVYLQMNSLKPEDTAVYYCAADWRQGLWYGYYYWGQGTQVTVSS,low polyreactivity

row,Sequence,polyreactivity (PSR sort gate)
1,QVQLVESGGGLVQAGGSLRLSCAASGSIFEWYAMGWYRQAPGKDRELVADITYNGGSTYYADSVKGRFTISRDNAKNTVYLQMNSLKPEDTAVYYCAADYFVQVPDYYYASEYGYWGQGTQGTVSS,low polyreactivity
2,QVQLVESGGGLVQAGGSLRLSCAASGSIFEYNDMGSYRQAPGKERELVAAITTGGRTSYADSVKGRFTISRDNAKYTVYLQMNSLKPEDTAVYYCNKDHSSYGASGYDYWGQGTQVTVSS,low polyreactivity
3,QVQLVESGGGLVQAGGSLRLSCAASGSIFEYNDMGWYRQAPGKERELVAAISWNGGSTYYADSVKGRFTISRDNAKNTVYLPMNSLKPEETAVYYCNTRYSPGYQGTEVDYWGQGTQVTVSS,low polyreactivity
4,QVQLVESGGGLVQAGGSLRLSCAASGSIFFGNAMGWYRQAPGKERELVAAISTTGGSTYYADSVKGRFTISRDNAKNTVYLQMNSLKPEDTAVYYCNADRATWWEQWWYDYWGQGTLVTVSS,low polyreactivity
5,QVQLVESGGGLVQAGGSLRLSCAASGSIFFGNAMGWYRQATGKERELVAAITRRGGSTYYADSVKGRFTISRDNAKNTVYLQMNSLKPEDTAVYYCNAVSKRYGYGYWGQGTQVTVSS,high polyreactivity
6,QVQLVESGGGLVQAGGSLRLSCAASGSIFFGYAMGSYRQAPGKERELVAAISTRGGSTYYADSVKGRFTISRDNAKNTFYLQMNSLKPEDTAVYYSAADYLDSTYGYVYGWDDYWGQGTQVTVSS,low polyreactivity
7,QVQLVESGGGLVQAGGSLRLSCAASGSIFFGYAMGWYRQAPGKERELVAAISTRGGRTYYADSVKGRFTISRDNAKNTVYLQMNSLKPEDTAVYYCAAFQAHQTAFDYWGQGTQVTVSS,high polyreactivity
8,QVQLVESGGGLVQAGGSLRLSCAASGSIFFKYTMGWYRQAPGKEREFVAAISYSGGRTYYADSVKGRFTISRDNAKNTVYLQMNSLKPEDTSVYYCATRDEITHGDRMDYWGQGTQVTVSS,low polyreactivity
9,QVQLVESGGGLVQAGGSLRLSCAASGSIFFLYAMGWYRQATGKEREFVAAITGTADSTYYADSVKGRFTISRDDAKNTVYLQMNSLNPEDTAVYYCATDYWSSVKLDDYWGQGTQVTVSS,low polyreactivity
10,QVQLVESGGGLVQAGGSLRLSCAASGSIFFPNAMGWYRQAPGKERELVAAISWSGDSTYADSVKGRFTISRDNAKNTVYLQMNSLKPEETAVYSCAAVYLWWSYEFDYWGQGTHVTVSS,low polyreactivity
11,QVQLVESGGGLVQAGGSLRLSCAASGSIFFPYAMGWYRQAPGKERELVAAISQSAGSTFYADSVKGRFTISRDNAKHTVYLQKNSLKPEDTAVYYCAKSGDADFYYTYYYWGQGTQVTVSS,low polyreactivity
12,QVQLVESGGGLVQAGGSLRLSCAASGSIFFPYAMGWYRQATGKERELVASINSGGITTYADSVKGRFTISRDNAKNTVYLQMNSLKPEDTAVYYCARYVSYRWVRYNYWGQGTQVTVSS,high polyreactivity
13,QVQLVESGGGLVQAGGSLRLSCAASGSIFFPYLMGWYRQAPGKERELVAAITYRAGSTYYADSVKGRFTISRDNAKNTVYLQMNSLKPEDTAVYYCAAVVSRSGEFGYWGQGTQVTVSS,low polyreactivity
14,QVQLVESGGGLVQAGGSLRLSCAASGSIFFRYTMGWSRQAPGTERELVAAITGSGGSTYYADSVKGRFTISRDNAKNTVYLQMNSLKTEDTAVYYCARPGWGRYEYWGQGTQVTVSS,high polyreactivity
15,QVQLVESGGGLVQAGGSLRLSCAASGSIFFSNAMGWYRQAPGKERELVAAITSSGASTYYADSVKGRFTISRDNAKNTVYLQMNSLKPEDTAVYYCAVVGRGKRYGYWGQGTQVTVSS,high polyreactivity
16,QVQLVESGGGLVQAGGSLRLSCAASGSIFFSNAMGWYRQAPGKERELVAVITYSGGGTYYADSVKGRFTISRDNAKNTVYLQMNSLKPEDTAVYYCNTDLGPDGISWHWYAYDYWGQGTQVTVSS,low polyreactivity
17,QVQLVESGGGLVQAGGSLRLSCAASGSIFFSYAMGWYIQAPGKERELVAAITSSVDSTYYADSVKGRFTISRDNAKNTVYLQMNSLKPEDTAVYYCAARYRSGYYRYDYWGQGTQVTVSS,low polyreactivity
18,QVQLVESGGGLVQAGGSLRLSCAASGSIFFSYAMGWYRQAPGKERELVAAIDYSGGGTYYADSVKGRFTISRDNAKNTVYLQMNSLKPEDTAVYYCNSDTEVWAVTFISYRALNYWGQGTQVTVSS,low polyreactivity
19,QVQLVESGGGLVQAGGSLRLSCAASGSIFFSYAMGWYRQAPGKERELVASISSGVSTNYADSEKGRFTISRDNAKNTVYLQMNSLKPEDTAVYYFAAYYRGWSSSYWYPAYNYWGQGTQVTVSS,low polyreactivity
20,QVQLVESGGGLVQAGGSLRLSCAASGSIFFVNAMGWYRQAPGKERELVAGITGGGSTYYADSVKGRFTISRDNAKNTVYLQMNSLKPEDTAVYYCNKKAYRKTGMDYWGQGTQVTVSS,low polyreactivity
21,QVQLVESGGGLVQAGGSLRLSCAASGSIFFYNTMGWYRQAPGKERELVAAISASGGRTYYADSVKGRFTISRDNAKNTVYLQMNSLKPEDTAVYYCAVRVPYRGYTRYDYWGQGTQVTVSS,high polyreactivity
